Article PMC9177416, “Discovery of non-squalene triterpenes” (Nature, 2022)

Target: the molecule itself
Assay: cryo-EM structure; non-cross-linked full-length MpMS, unliganded, 50 uM in 20 mM HEPES pH 7.5, 150 mM NaCl, 1 mM DTT; only the PT domain reconstructed; map resolution 3.17 Å

B1: Macrophomina phaseolina macrophomene synthase (enzyme, Macrophomina phaseolina MS6, UniProt K2SUY0 1-698, looked up)
chain: MCNTKCYNTLAKMTVITEPAMEYMYSVPLDESEYDKCGFCQDPRYRPRRHKDQHLARAGSAKAKELCEALIGVYPRPTCESAVGHSIALVMPECMPGRVEAMGEFMESIFYMDNIAESGSQQDTGNLGTEWANDMETGPTTSVNSNTGAKQVMAKLALQLLSIDPVCAGNVMKAWKEWAAGFAKPRRFDSIEQYIDYRLVDSGAIVAVHLMNFGMGLDISVEELREVSDIVNHAGKALSYQNDFFSFNYEHDMFVKLPDSIGIANAVFVLAETEGLSLAEAKERVKELAKEHEDAVLRLKDEVESKVSYKLRICLEGLVDMVVGNLVWSASCDRYSSYRREKHQMELPIRIQGPPTPPQEPVYEKATLPNGKQLDAPTESSGKDLSDGVATLSGDEPVLGDEIVSAPIKYLESLPSKGFREAIIDGMNGWLNLPARSVSIIKDVVKHIHTASLLCDDIEDSSPLRRGQPSAHIIFGVSQTVNSTSYLWTLAIDRLSELSSPKSLRIFIDEVRKMQIGQSFDLHWTAALQCPSEEEYLSMIDMKTGGLFHLLIRLMIAESPRKVDMDFSGLVSMTGRYFQIRDDLSNLTSEEYENQKGYCEDLDEGKYSLPLIHALKHTKNKVQLESLLIQRKTQGGMTLEMKRLAIQIMKEAGSLEHTRKVVLELQDAVHRELAKLEEAFGQENYVIQLALERLRIKA
notes: codon-optimized synthetic gene cloned NdeI/EcoRI into pET28a (pRC088); Used without cross-linking in one cryo-EM sample and cross-linked with 0.06% glutaraldehyde in another; Only the PT domain (plus one TC helix in the cross-linked sample) could be modelled; also called MpMS; MPH_02178; source: E. coli BL21(DE3), purified (Ni-NTA, Resource Q anion exchange, Superose 6 size exclusion)
stoichiometry N: 6
